Measured values taken from US20040014036.

How the values were obtained:
[1] = system: Gal4(1-100)-LS201 (Saccharomyces cerevisiae); test: cell_activity; conditions: yeast JPY9:RJR227 lacZ reporter; activation dependent on Gal4 sites (p75)
[2] = system: Gal4 full length (Saccharomyces cerevisiae); test: cell_activity; conditions: yeast lacZ reporter, 5x17mer; activation dependent on Gal4 sites stated for the peptide activators

GAL4 consensus 17mer sites (five, reporter pRJR227)
activity (beta-gal units) [1]: 5290
activity (beta-gal units) [2]: 2350
